Data from patent US5891679A, “TNF-alpha muteins and a process for preparing them” (priority 1993, dated 1999).
“Also recorded” adds a separate entry of the source. Bridges are numbered along the chain shown (N, C = ends). The star is where a group is joined. Biotin = O=C1N[C@H]2[C@H](CS[C@H]2CCCCC(=O)*)N1

Key:
[1] = test system: Trypanosoma brucei brucei; experiment: In vitro trypanocidal assay, T. brucei brucei; type: cell-based; settings: for effect on trypanocidal activity of TNF-α / tip peptide: preincubation or cotreatment with the substance; for % inhibition of trypanocidal activity: lectin 10 μg/ml; for Δ: % inhibition of trypanocidal activity by the addition of the p55 hTNFα receptor protein: p55 5 μg/ml
Procedure: The Trypanosoma brucei brucei AnTat 1.1 (EATRO 1125) pleomorphic bloodstream form was kindly provided to us by Dr. N. Van Meirvenne of the Institute for Tropical Medecine, Antwerp, Belgium, and the Trypanosoma brucei rhodesiense Trp 11 pleomorphic bloodstream form was kindly provided to us by Dr. E. Bajyana Songa (Dept. Molecular Biology, Free University of Brussels, Belgium)
After 5 h of incubation, the number of live (=moving) parasites was assessed (counting chamber) and compared the control wells in which only incubation medium was added to the trypanosomes. […] All treatments were done in quadruplicate and all reported in vitro trypanolysis experiments were repeated at least 3 times.

L929 cells = experiment: L929 cell killing (cytotoxic/cytolytic/tumoricidal) assay; type: cell-based, mouse; settings: for effect on mTNF-α tumoricidal (cytolytic) activity: preincubation of mTNF-α with the substance; for Δ: % inhibition of tumoricidal activity by the addition of the p55 hTNFα receptor protein: p55 5 μg/ml
Procedure: L929 fibrosarcoma cells were obtained from the Rega Institute, Leuven, Belgium.
After 18 h of culture at 37° C., viability of the cell cultures was assessed by dye uptake analysis. […] The plates were read spectrophotometrically at 577 nm with a Titertek multiscan MCC340 ELISA Reader (Flow Laboratories, McLean, Va.).

[2] = test system: human interleukin-6 (IL6); experiment: IL6 production by hMVECb cells; type: cell-based; settings: for IL6 concentration: 24 hours
Procedure: Subsequently, the IL6 concentration in the supernatant of the cells was assessed using a commercially available hIL6 ELISA kit (Medgenix, Belgium).

[3] = test system: human interleukin 8 (IL8); experiment: IL8 production by hMVECb cells; type: cell-based; settings: for IL8 induction compared with wild type: human endothelial brain cells
[4] = test system: 3LL-R Lewis lung carcinoma cells; experiment: Experimental metastasis inducing capacity on TNF resistant 3LL-R Lewis lung carcinoma cells; type: in vivo, mouse (C57bl/6); settings: for metastasis enhancing potential compared with wild type TNF: 3LL-R
Procedure: At this time, all mice were killed and the lung weight as well as the amount of cancer cell nodules in the lung was assessed.

[5] = In vivo half life of wild type and tip-deleted TNF-α (serum concentration)
Procedure: An ELISA assay to measure the protein concentration of the wild type and tip-deleted or tip-mutated mouse TNF-α protein was developed. […] Subsequently, the plates were washed once with washing buffer (PBS, 0.05% Tween-20) and the remaining binding sites were blocked for at least one hour at 37° C. with 300 μl per well of PBS buffer supplemented with 1% BSA and 0.1% NaN3. Dilutions of sample or standard mTNF-α (0.01 to 10 ng/ml mTNF-α), made in 100 μl of PBS supplemented with 1% BSA, 1% rabbit serum, and 0.1% mertiolate are then added to each well and incubated for 2 hours at 37° C. […] Subsequently, the plates are washed four times with washing buffer wherafter 100 μl of straptavidin-horseradish peroxidase (Jackson Immunoresearch Labs), which has been diluted in sample diluent to a concentration of 100 ng/ml is added and incubated for 30 minutes at 37° C. […] The reaction is stopped by adding 100 μl per well of 2N H2SO4 wherafter the optical density is read at dual wavelength (450/595 nm).
Female 8 weeks old C57bL/6 mice (6 mice/group--Charles Rivers Deutshland) were injected intraperitoneally with 1 μg/mouse of either wild type mouse TNF-α or tip deleted TNF-α. Subsequently, the mice were bled 0.5, 5, 10, 15, 30, 60, 120, 180, or 240 minutes post-injection.

[6] = 333 pg/ml, experiment 1, 24 hours
[7] = 333 pg/ml, experiment 2, 24 hours
[8] = 1000 pg/ml, experiment 1, 24 hours
[9] = 1000 pg/ml, experiment 2, 24 hours
[10] = 1666 pg/ml, experiment 1, 24 hours
[11] = 1666 pg/ml, experiment 2, 24 hours

CC(=O)N[C@H]1[C@H](O[C@H]2[C@H](O)[C@@H](NC(C)=O)C(O)O[C@@H]2CO)O[C@H](CO)[C@@H](O)[C@@H]1O (stereo partly shown) [N,N'-diacetylchitobiose, reference compound]
effect on trypanocidal activity of TNF-α / tip peptide [1]: potently inhibits the trypanocidal activity; also recorded: potent inhibition of the mTNF-α trypanocidal effect; also recorded: trypanocidal activity of the peptide can also be inhibited
effect on mTNF-α tumoricidal (cytolytic) activity (L929 cells; L929 cells): not the cytolytic activity; also recorded: not affected

Bio-GG-C-TPEGAA-C (Biotin-GGCTPEGAAC-NH2; cysteine pairing not given here) [mutpep 5]
trypanocidal activity ([1]; T. brucei brucei): lost their trypanocidal activity

Bio-GG-CGPKDTPEGAELKPWYC (Biotin-GGCGPKDTPEGAELKPWYC-NH2; disulfide 3-19 (inferred)) [mTNFα-tip]
trypanocidal activity ([1]; T. brucei brucei): shows a trypanocidal activity
trypanocidal specific activity ([1]; in vitro trypanocidal assay, average specificity): 4×10^2 -4×10^3 U/mg of peptide
tumoricidal activity of tip peptide (L929 cells; L929 cells, similar dose response curve, data not shown): exerts no tumoricidal activity

Bio-GG-C-TPEGAE-C (Biotin-GGCTPEGAEC-NH2; cysteine pairing not given here) [subpep 1]
trypanocidal activity ([1]; T. brucei brucei): full trypanocidal activity

Bio-GG-EGAELKPWY [subpep 2]
trypanocidal activity ([1]; T. brucei brucei): strongly reduced trypanocidal activity

Bio-GG-C-TPEAAE-C (Biotin-GGCTPEAAEC-NH2; cysteine pairing not given here) [mutpep 4]
trypanocidal activity ([1]; T. brucei brucei): fully or even more active

Bio-GG-CGQRETPEGAEAKPWYC [hTNFα-tip]
trypanocidal activity ([1]; T. brucei brucei): shows similar results

Bio-GG-C-TPAGAE-C (Biotin-GGCTPAGAEC-NH2; cysteine pairing not given here) [mutpep 3]
trypanocidal activity ([1]; T. brucei brucei): lost their trypanocidal activity

GNA: lectin Galanthus nivalis agglutinin [reference compound]
% inhibition of trypanocidal activity ([1]; mTNF-α 1.000 pg/ml): 5 ± 3%
% inhibition of trypanocidal activity ([1]; mTNF-α 10.000 pg/ml): 5 ± 2%
% inhibition of trypanocidal activity ([1]; mTNF-α 100 pg/ml): 0 ± 1%
% inhibition of trypanocidal activity ([1]; mTNF-α 100.000 pg/ml): 3 ± 2%
% inhibition of trypanocidal activity ([1]; mTNF-α 1.000.000 pg/ml): 2 ± 1%
effect on trypanocidal activity of TNF-α / tip peptide [1]: did not have any effect
effect on mTNF-α tumoricidal (cytolytic) activity (L929 cells; L929 cells): none of these lectins had any effect

[Cl-].[Li+] [LiCl, reference compound]
potentiation of trypanocidal effect of TNF-α ([1]; 1 μg/ml of LiCl co-treatment): 100 fold
mortality of trypanosomes ([1]; T. brucei brucei, 5 h, data not shown): by itself had no effect on the survival of the trypanosomes
effect on trypanocidal activity of TNF-α / tip peptide [1]: synergistically potentiates the trypanocidal effect of mTNF-α

Bio-GG-C-TAEGAE-C (Biotin-GGCTAEGAEC-NH2; cysteine pairing not given here) [mutpep 2]
trypanocidal activity ([1]; T. brucei brucei): fully or even more active

Bio-GG-C - - - - APEGAE - - - - - C (Biotin-GGCAPEGAEC-NH2; cysteine pairing not given here) [mutpep 1]
trypanocidal activity ([1]; T. brucei brucei): lost their trypanocidal activity

B1: soluble p55 hTNF-α receptor: soluble p55 hTNF-α receptor protein (protein)
chain: DSVCPQGKYIHPQNNSICCTKCHKGTYLYNDCPGPGQDTDCRECESGSFTASENHLRHCLSCSKCRKEMGQVEISSCTVDRDTVCGCRKNQYRHYWSENLFQCFNCSLCLNGTVHLSCQEKQNTVCTCHAGFFLRENECVSCSNCKKSLECTKLCLPQIEN
Δ: % inhibition of trypanocidal activity by the addition of the p55 hTNFα receptor protein ([1]; mTNF-α 100 pg/ml): 15 ± 5%
Δ: % inhibition of trypanocidal activity by the addition of the p55 hTNFα receptor protein ([1]; mTNF-α 1000 pg/ml): 10 ± 4%
Δ: % inhibition of trypanocidal activity by the addition of the p55 hTNFα receptor protein ([1]; mTNF-α 10000 pg/ml): 7 ± 5%
effect on trypanocidal activity of TNF-α / tip peptide [1]: hardly influenced
Δ: % inhibition of tumoricidal activity by the addition of the p55 hTNFα receptor protein (L929 cells; mTNF-α 100 pg/ml): 100 ± 5%
Δ: % inhibition of tumoricidal activity by the addition of the p55 hTNFα receptor protein (L929 cells; mTNF-α 1000 pg/ml): 100 ± 4%
Δ: % inhibition of tumoricidal activity by the addition of the p55 hTNFα receptor protein (L929 cells; mTNF-α 10000 pg/ml): 5 ± 2%
effect on mTNF-α tumoricidal (cytolytic) activity (L929 cells; L929 cells): potently inhibits the mTNF-α tumoricidal activity

B2: P106A mTNF-α: Pro106 of mTNF-α is changed to an Ala residue (protein)
chain: LRSSSQNSSDKPVAHVVANHQVEEQLEWLSQRANALLANGMDLKDNQLVVPADGLYLVYSQVLFKGQGCPDYVLLTHTVSRFAISYQEKVNLLSAVKSPCPKDTAEGAELKPWYEPIYLGGVFQLEKGDQLSAEVNLPKYLDFAESGQVYFGVIAL
IL6 concentration ([2]; 333 pg/ml, experiment 1): 720 pg/mL
IL6 concentration ([2]; 333 pg/ml, experiment 2): 1300 pg/mL
IL6 concentration ([2]; 1000 pg/ml, experiment 1): 560 pg/mL
IL6 concentration ([2]; 1000 pg/ml, experiment 2): 750 pg/mL
IL6 concentration ([2]; 1666 pg/ml, experiment 1): 800 pg/mL
IL6 concentration ([2]; 1666 pg/ml, experiment 2): 1300 pg/mL
IL8 concentration [3, 6]: 300 pg/mL
IL8 concentration [3, 7]: 400 pg/mL
IL8 concentration [3, 8]: 1100 pg/mL
IL8 concentration [3, 9]: 1500 pg/mL
IL8 concentration [3, 10]: 250 pg/mL
IL8 concentration [3, 11]: 900 pg/mL
fold less IL8 induced than wild type TNF-α ([3]; hMVECb, 24 hours): about 3 fold
IL8 induction compared with wild type [3]: induce consistently less human interleukin 8 (IL8)

B3: del mTNF-α: tip-deleted mTNF-α; the TPEGAE coding sequence is deleted from the mTNF gene (protein)
chain: LRSSSQNSSDKPVAHVVANHQVEEQLEWLSQRANALLANGMDLKDNQLVVPADGLYLVYSQVLFKGQGCPDYVLLTHTVSRFAISYQEKVNLLSAVKSPCPKDLKPWYEPIYLGGVFQLEKGDQLSAEVNLPKYLDFAESGQVYFGVIAL
metastasis enhancing potential compared with wild type TNF ([4]; listed as TNF tip deletion mutant): considerably lower than that of wild type TNF
metastasis enhancing potential compared with wild type TNF ([4]; listed as mTNFα mutein carrying a deletion of the region extending from amino acids 105 to): considerably lower in vivo metastasis enhancing potential
general condition of mice ([4]; 17 days): looked significantly better
mean lung weight ([4]; 17 days, 5 μg/mouse i.p. 5 hours prior to 3LL-R cells): 566 ± 318
IL6 concentration ([2]; 333 pg/ml, experiment 1): 760 pg/mL
IL6 concentration ([2]; 333 pg/ml, experiment 2): 850 pg/mL
IL6 concentration ([2]; 1000 pg/ml, experiment 1): 1180 pg/mL
IL6 concentration ([2]; 1000 pg/ml, experiment 2): 1600 pg/mL
IL6 concentration ([2]; 1666 pg/ml, experiment 1): 1240 pg/mL
IL6 concentration ([2]; 1666 pg/ml, experiment 2): 1900 pg/mL
IL6 induction compared with wild type ([2]; hMVECb): higher induction of human interleukin-6
longer half life than wild type TNF-α ([5]; 1 μg/mouse i.p.): at least 2 fold
concentration TNF-α ([5]; Experiment 1, 0.5 minutes, 1 μg/mouse i.p.): 1000 ng/mL
concentration TNF-α ([5]; Experiment 1, 5 minutes, 1 μg/mouse i.p.): 990 ng/mL
concentration TNF-α ([5]; Experiment 1, 10 minutes, 1 μg/mouse i.p.): 640 ng/mL
concentration TNF-α ([5]; Experiment 1, 15 minutes, 1 μg/mouse i.p.): 550 ng/mL
concentration TNF-α ([5]; Experiment 1, 30 minutes, 1 μg/mouse i.p.): 580 ng/mL
concentration TNF-α ([5]; Experiment 1, 60 minutes, 1 μg/mouse i.p.): 450 ng/mL
concentration TNF-α ([5]; Experiment 1, 120 minutes, 1 μg/mouse i.p.): 250 ng/mL
concentration TNF-α ([5]; Experiment 1, 180 minutes, 1 μg/mouse i.p.): 100 ng/mL
concentration TNF-α ([5]; Experiment 1, 240 minutes, 1 μg/mouse i.p.): 10 ng/mL
concentration TNF-α ([5]; Experiment 2, 0.5 minutes, 1 μg/mouse i.p.): 1000 ng/mL
concentration TNF-α ([5]; Experiment 2, 15 minutes, 1 μg/mouse i.p.): 600 ng/mL
concentration TNF-α ([5]; Experiment 2, 30 minutes, 1 μg/mouse i.p.): 500 ng/mL
concentration TNF-α ([5]; Experiment 2, 60 minutes, 1 μg/mouse i.p.): 500 ng/mL
concentration TNF-α ([5]; Experiment 2, 120 minutes, 1 μg/mouse i.p.): 330 ng/mL
concentration TNF-α ([5]; Experiment 2, 180 minutes, 1 μg/mouse i.p.): 240 ng/mL
concentration TNF-α ([5]; Experiment 2, 240 minutes, 1 μg/mouse i.p.): 20 ng/mL
in vivo half life compared with wild type ([5]; L929 cytotoxic assay and indirect ELISA): increased half life
IL8 concentration [3, 6]: 1800 pg/mL
IL8 concentration [3, 7]: 2450 pg/mL
IL8 concentration [3, 8]: 1300 pg/mL
IL8 concentration [3, 9]: 2200 pg/mL
IL8 concentration [3, 10]: 850 pg/mL
IL8 concentration [3, 11]: 1250 pg/mL
IL8 induction compared with wild type ([3]; listed as deletion mutant of mTNFα in the region extending from amino acids 105 to 110): induce consistently less human interleukin 8 (IL8)
IL8 induction compared with wild type ([3]; listed as tip deletion mutant): about two times more powerful in inducing the inflammatory cytokine IL8
